Test results from patent US8512991B2, “Beta 1,4-galactosyltransferases with altered donor and acceptor specificities, compositions and methods of use” (The United States of America, as represented by the …, priority 2007, dated 2013).
Substitutions are numbered along the chain they refer to. Numbers in names are those of the source. Where two headings read alike, the source gives them in different places.

B1: b4Gal-T1-M340H-Y285L: double mutant human beta 1,4-galactosyltransferase I, Tyr285Leu and Met340His, transfers GalNAc or modified galactose with magnesium (protein, UniProt P15291 1-398, looked up, variant M340H Y285L)
chain: MRLREPLLSGSAAMPGASLQRACRLLVAVCALHLGVTLVYYLAGRDLSRLPQLVGVSTPLQGGSNSAAAIGQSSGELRTGGARPPPPLGASSQPRPGGDSSPVVDSGPGPASNLTSVPVPHTTALSLPACPEESPLLVGPMLIEFNMPVDLELVAKQNPNVKMGGRYAPRDCVSPHKVAIIIPFRNRQEHLKYWLYYLHPVLQRQQLDYGIYVINQAGDTIFNRAKLLNVGFQEALKDYDYTCFVFSDVDLIPMNDHNAYRCFSQPRHISVAMDKFGFSLPYVQLFGGVSALSKQQFLTINGFPNNYWGWGGEDDDIFNRLVFRGMSISRPNAVVGRCRHIRHSRDKKNEPNPQRFDRIAHTKETMLSDGLNSLTYQVLDVQRYPLYTQITVDIGTPS
B2: b4Gal-T1 Y285L: single mutant human beta4Gal-T1, Tyr285 to Leu, from which the double mutant was constructed (protein, UniProt P15291 1-398, looked up, variant Y285L)
chain: B1 chain with H340M
B3: b4Gal-T1-M340H: single mutant human beta4Gal-T1, Met340 to His, from which the double mutant was constructed (protein, UniProt P15291 1-398, looked up, variant M340H)
chain: B1 chain with L285Y
B4: b4Gal-T1Y289L: single mutant beta4Gal-T1, Tyr289 to Leu (bovine numbering), enlarged binding pocket with GalNAc-T activity (protein, UniProt P08037 1-402, looked up, variant Y289L)
chain: MKFREPLLGGSAAMPGASLQRACRLLVAVCALHLGVTLVYYLAGRDLRRLPQLVGVHPPLQGSSHGAAAIGQPSGELRLRGVAPPPPLQNSSKPRSRAPSNLDAYSHPGPGPGPGSNLTSAPVPSTTTRSLTACPEESPLLVGPMLIEFNIPVDLKLVEQQNPKVKLGGRYTPMDCISPHKVAIIIPFRNRQEHLKYWLYYLHPILQRQQLDYGIYVINQAGESMFNRAKLLNVGFKEALKDYDYNCFVFSDVDLIPMNDHNTYRCFSQPRHISVAMDKFGFSLPYVQLFGGVSALSKQQFLSINGFPNNYWGWGGEDDDIYNRLAFRGMSVSRPNAVIGKCRMIRHSRDKKNEPNPQRFDRIAHTKETMLSDGLNSLTYMVLEVQRYPLYTKITVDIGTPS

How the values were obtained:
[1] = Transfer of GalNAc or 2-keto-galactose to heptasaccharide tetrapeptide, MALDI mass spectra (FIG. 1); assay type: biochemical
Description: Major peaks are annotated with the carbohydrate structure shown in the symbols for monosaccharides, according to the nomenclature adopted by the consortium for functional glycomics, (on the world wide web at functionalglycomics.org/static/consortium/). GlcNAc (squares), mannose (spheres).
The experiments shown in FIG. 1 were performed with the double mutant, b4Gal-T1_M340H_Y285L, which was constructed from the single mutants, b4Gal-T1_M340H and b4Gal-T1_Y285L. The b4Gal-T1-M340H single mutant requires Mg2+ for the transfer reaction, while the b4Gal-T1 Y285L single mutant requires Mn2+ for the transfer reaction. In FIGS. 1, (A), (B) and (C) show the MALDI mass spectra of glycans after the transfer of GalNAc (shown in B) or 2-keto-galactose (shown in C) to the sugar acceptor, heptasaccharide tetrapeptide (A), Arg-[GlcNAcβ1,2-Manα-1,6-(GlcNAcβ1,2-Manα1,3)-Manβ1,4-GlcNAcβ1,4-GlcNAcβ]-Asn-Glu-Gly, by the double mutant enzyme, b4Gal-T1M340H_Y285L. In FIG. 1, major peaks are annotated with the carbohydrate structure shown in the symbols for monosaccharides, according to the nomenclature adopted by the consortium for functional glycomics (publicly available on the world wide web at functional glycomics.org/static/consortium/).

[2] = Gal-T and GalNAc-T enzyme assay, specific activities of the catalytic domain (FIG. 2); assay type: biochemical; details: in the presence of magnesium; saturating substrates, 500 μM UDP-galactose or UDP-GalNAc, β-benzyl-GlcNAc 25 mM
Description: FIG. 2 is a graph showing specific activities of the catalytic domain of the human beta 4Gal-T1-M340H-Y285L. Reactions were performed under saturating conditions of all substrates. In these reactions the concentrations for the donors UDP-galactose or UDP-GalNAc was 500 μM and the acceptor β-benzyl-GlcNAc was at 25 mM.
The reactions were performed under saturating conditions of all substrates. […] This is in contrast to the wild type, which is not active (not able to transfer sugar) in the presence of magnesium.
Gal-T and GalNAc T enzyme assays are easily performed according to methods described in the art, for example US Published Application 20060084162. Protein concentrations are measured using the Bio-Rad protein assay kit, based on the method of Bradford and further verified on SDS gel. An in vitro assay procedure for the Gal-T1 has been reported previously (Ramakrishnan et al., J. Biol. Chem., 270, […] (2001)). The activities were measured using UDP-Gal or UDP-GalNAc as sugar nucleotide donors, and GlcNAc and Glc as the acceptor sugars. […] The column was washed successfully with 300, 400, and 500 µl of water, and the column flow-through was diluted with Biosafe scintillation fluid; radioactivity was measured with a Beckman counter. […]

[3] = Ramakrishnan et al. 2002, 2004, cited from earlier work

activity (able to transfer sugar) of the catalytic domain [2] | Molecule | transfer of GalNAc or a modified sugar (2-keto-galactose) to the sugar acceptor ([1]; in the presence of Mg2+, acceptor heptasaccharide tetrapeptide) | metal ion required for the transfer reaction (GalNAc or a modified sugar) [1] | beta 4GalNAc-T activity compared with beta 4Gal-T activity ([3]; listed as beta 4Gal-T1-Y289L) | beta 4GalNAc-T activity compared with beta 4Gal-T activity ([3]; listed as beta4Gal-T1-Y289L)
is active | B1 | transfer of GalNAc or a modified sugar | – | – | –
– | B2 | – | requires Mn2+ | – | –
– | B3 | – | requires Mg2+ | – | –
– | B4 | – | require the presence of Mn2+ | exhibits both beta 4Gal-T and beta 4GalNAc-T activities | as efficient as its beta-1,4-galactosyltransferase (beta 4Gal-T) activity
